{
  "source": "patent US20180237534A1",
  "about": "(Bristol-Myers Squibb, published 2018)",
  "binders": {"B1": {"name": "OX40.6 (antibody, human IgG1, kappa, V domains shown)", "VH": "EVQLVQSGGGLVQPGGSLRLSCAGSGFTFSNYAMYWVRQAPGKGLEWVSAIGIGGDTFYTDSVKGRFTISRDNAKNSLSLQMNSLRAEDTAVYYCARMGTGYFFDYWGQGTLVTVSS", "VL": "EIVLTQSPATLSLSPGERATLSCRASQSVSSYLAWYQQKPGQAPRLLIYDASNRATGIPARFSGSGSGTDFTLTISSLEPEDFAVYYCQQRSNWPLTFGPGTKVDIKR", "notes": "g1f; 23H3 with VH-H13Q/M87T"}},
  "key": {"[1]": {"target": "T1, human OX40, membrane-bound (human, UniProt P43489 29-277)", "T1 sequence": "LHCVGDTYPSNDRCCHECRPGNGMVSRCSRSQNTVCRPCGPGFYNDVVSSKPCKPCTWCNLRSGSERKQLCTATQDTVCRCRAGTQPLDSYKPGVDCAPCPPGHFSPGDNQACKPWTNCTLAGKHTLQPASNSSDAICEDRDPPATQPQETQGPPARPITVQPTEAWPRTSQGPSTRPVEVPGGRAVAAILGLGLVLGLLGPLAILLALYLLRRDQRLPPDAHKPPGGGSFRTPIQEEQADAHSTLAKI", "test": "FACS on activated primary human CD4+/CD25+ T cells, purified recombinant antibody, APC GMFI", "protocol": "Cells were activated for several days before the binding assay in order to induce OX40 expression. Briefly, PBMCs were cultured for three or four days with magnetic beads coated with anti-human CD3 plus anti-human CD28, in the presence of recombinant human IL-2. On the day of the assay, the beads were removed and the cells stained with a titration of each anti-OX40 antibody. Bound antibodies were detected with a fluorescently conjugated anti-human IgG polyclonal secondary antibody, and the cells were co-stained for CD4 and CD25 to detect activated CD4 T cells. The fluorescence intensity of the staining was measured using a FACSCanto II flow cytometer (Becton Dickinson). The geometric mean fluorescence intensity (GMFI) or median fluorescence intensity (MedFI) of anti-OX40 antibody staining was calculated for the CD4+CD25+ population (FACSDiva software). EC₅₀s for antibody binding were calculated using GraphPad Prism software."}, "[2]": {"target": "T2, cynomolgus OX40, membrane-bound (cynomolgus monkey, UniProt P43489 29-277 (human entry))", "T2 construct": "also called cynoOX40-CHO", "T2 chain": "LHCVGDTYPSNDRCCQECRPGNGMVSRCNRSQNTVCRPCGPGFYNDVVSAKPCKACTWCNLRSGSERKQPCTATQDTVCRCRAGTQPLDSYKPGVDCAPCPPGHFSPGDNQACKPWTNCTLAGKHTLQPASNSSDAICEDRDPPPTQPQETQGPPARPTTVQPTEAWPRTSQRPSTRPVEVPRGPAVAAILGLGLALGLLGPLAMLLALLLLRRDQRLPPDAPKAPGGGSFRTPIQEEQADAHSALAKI", "test": "FACS on activated primary cynomolgus CD4+/CD25+ T cells, purified recombinant antibody, APC GMFI", "protocol": "Briefly, cells were activated for several days before the binding assay in order to induce OX40 expression. Total leukocytes were isolated from cynomolgus macaque peripheral blood by lysis of red blood cells using an ammonium chloride buffer. The leukocytes were then cultured for four to five days with in flasks pre-coated with anti-human CD3 plus anti-human CD28 antibodies that cross-react with cynomolgus macaque, in the presence of recombinant human IL-2, in order to expand and activate T cells. On the day of the assay, the cells were harvested and stained with a titration of each anti-OX40 antibody. Bound antibodies were detected with a fluorescently conjugated anti-human IgG polyclonal secondary antibody, and the cells were co-stained for CD4 and CD25 to detect activated CD4 T cells. The fluorescence intensity of the staining was measured using a FACSCanto II flow cytometer (Becton Dickinson). The geometric mean fluorescence intensity (GMFI) or median fluorescence intensity (MedFI) of anti-OX40 antibody staining was calculated for the CD4+CD25+ population (FACSDiva software). Dose-response curves were generated and EC50s for antibody binding were calculated using GraphPad Prism software.\nThe same experiment was performed with anti-OX40 antibodies with variable region substitutions."}},
  "data": [
    {"binder": "B1", "values": [
      {"measurement": "EC50 (read off the curve)", "setting": "[1]", "value": "~0.1", "unit": "nM"},
      {"measurement": "EC50 (read off the curve)", "setting": "[2]", "value": "~0.1", "unit": "nM"}
    ]}
  ]
}
